# Data: the RNAGym collection of RNA variant scans (doi:10.1021/acssynbio.7b00057)
# B1: Pistol ribozyme (parent)
# chain: GGGUCGUUGUUCCAUAAUCGCGUGGAUAUGGCACGCAAGUUUCUACCGGGCACCGUAAAUGUCCGACUGGAGCCGUUCGGGCGGCUAUAAACAGACCUCAGGCCCGAAGCGUGGCGGCACCUGCCGCCGGUGGUAAAAAAGAUCGGAAGAGCACACGUCU
# Variants of: B1
# Assay: aptazyme ON/OFF ratio, guanine; higher = stronger switching; co-transcriptional cleavage with and without guanine
row,Variant,aptazyme ON/OFF ratio
1,GGGUCGGUGGACUAUAAUCGCGUGGAUAUGGCACGCAAGUUUCUACCGGGCACCGUAAAUGUCCGACUGGAGCCGUUCGGGCGGCUAUAAACAGACCUCAGGCCCGAAGCGUGGCGGCACCUGCCGCCGGUGGUAAAAAAGAUCGGAAGAGCACACGUCU [U7G U10G U11A C13U],1.11
2,GGGUCGGUGGACGAUAAUCGCGUGGAUAUGGCACGCAAGUUUCUACCGGGCACCGUAAAUGUCCGACUGGAGCCGUUCGGGCGGCUAUAAACAGACCUCAGGCCCGAAGCGUGGCGGCACCUGCCGCCGGUGGUAAAAAAGAUCGGAAGAGCACACGUCU [U7G U10G U11A C13G],1.07
3,GGGUCGGUGGACAAUAAUCGCGUGGAUAUGGCACGCAAGUUUCUACCGGGCACCGUAAAUGUCCGACUGGAGCCGUUCGGGCGGCUAUAAACAGACCUCAGGCCCGAAGCGUGGCGGCACCUGCCGCCGGUGGUAAAAAAGAUCGGAAGAGCACACGUCU [U7G U10G U11A C13A],1.11
4,GGGUCGGUGGUUCAUAAUCGCGUGGAUAUGGCACGCAAGUUUCUACCGGGCACCGUAAAUGUCCGACUGGAGCCGUUCGGGCGGCUAUAAACAGACCUCAGGCCCGAAGCGUGGCGGCACCUGCCGCCGGUGGUAAAAAAGAUCGGAAGAGCACACGUCU [U7G U10G C12U],1.39
5,GGGUCGGUGGCAGAUAAUCGCGUGGAUAUGGCACGCAAGUUUCUACCGGGCACCGUAAAUGUCCGACUGGAGCCGUUCGGGCGGCUAUAAACAGACCUCAGGCCCGAAGCGUGGCGGCACCUGCCGCCGGUGGUAAAAAAGAUCGGAAGAGCACACGUCU [U7G U10G U11C C12A C13G],1.12
6,GGGUCGGUGGCAAAUAAUCGCGUGGAUAUGGCACGCAAGUUUCUACCGGGCACCGUAAAUGUCCGACUGGAGCCGUUCGGGCGGCUAUAAACAGACCUCAGGCCCGAAGCGUGGCGGCACCUGCCGCCGGUGGUAAAAAAGAUCGGAAGAGCACACGUCU [U7G U10G U11C C12A C13A],1.11
7,GGGUCGGUGGCAUAUAAUCGCGUGGAUAUGGCACGCAAGUUUCUACCGGGCACCGUAAAUGUCCGACUGGAGCCGUUCGGGCGGCUAUAAACAGACCUCAGGCCCGAAGCGUGGCGGCACCUGCCGCCGGUGGUAAAAAAGAUCGGAAGAGCACACGUCU [U7G U10G U11C C12A C13U],1.17
8,GGGUCGGUGGUGAAUAAUCGCGUGGAUAUGGCACGCAAGUUUCUACCGGGCACCGUAAAUGUCCGACUGGAGCCGUUCGGGCGGCUAUAAACAGACCUCAGGCCCGAAGCGUGGCGGCACCUGCCGCCGGUGGUAAAAAAGAUCGGAAGAGCACACGUCU [U7G U10G C12G C13A],1.21
9,GGGUCGGUGGUGGAUAAUCGCGUGGAUAUGGCACGCAAGUUUCUACCGGGCACCGUAAAUGUCCGACUGGAGCCGUUCGGGCGGCUAUAAACAGACCUCAGGCCCGAAGCGUGGCGGCACCUGCCGCCGGUGGUAAAAAAGAUCGGAAGAGCACACGUCU [U7G U10G C12G C13G],1.07
10,GGGUCGGUGGUGUAUAAUCGCGUGGAUAUGGCACGCAAGUUUCUACCGGGCACCGUAAAUGUCCGACUGGAGCCGUUCGGGCGGCUAUAAACAGACCUCAGGCCCGAAGCGUGGCGGCACCUGCCGCCGGUGGUAAAAAAGAUCGGAAGAGCACACGUCU [U7G U10G C12G C13U],1.12
11,GGGUCGGUGGAGUAUAAUCGCGUGGAUAUGGCACGCAAGUUUCUACCGGGCACCGUAAAUGUCCGACUGGAGCCGUUCGGGCGGCUAUAAACAGACCUCAGGCCCGAAGCGUGGCGGCACCUGCCGCCGGUGGUAAAAAAGAUCGGAAGAGCACACGUCU [U7G U10G U11A C12G C13U],1.1
12,GGGUCGGUGGAGAAUAAUCGCGUGGAUAUGGCACGCAAGUUUCUACCGGGCACCGUAAAUGUCCGACUGGAGCCGUUCGGGCGGCUAUAAACAGACCUCAGGCCCGAAGCGUGGCGGCACCUGCCGCCGGUGGUAAAAAAGAUCGGAAGAGCACACGUCU [U7G U10G U11A C12G C13A],1.11
13,GGGUCGGUGGAGGAUAAUCGCGUGGAUAUGGCACGCAAGUUUCUACCGGGCACCGUAAAUGUCCGACUGGAGCCGUUCGGGCGGCUAUAAACAGACCUCAGGCCCGAAGCGUGGCGGCACCUGCCGCCGGUGGUAAAAAAGAUCGGAAGAGCACACGUCU [U7G U10G U11A C12G C13G],1.13
14,GGGUCGGUGGCUCAUAAUCGCGUGGAUAUGGCACGCAAGUUUCUACCGGGCACCGUAAAUGUCCGACUGGAGCCGUUCGGGCGGCUAUAAACAGACCUCAGGCCCGAAGCGUGGCGGCACCUGCCGCCGGUGGUAAAAAAGAUCGGAAGAGCACACGUCU [U7G U10G U11C C12U],1.17
15,GGGUCGGUGGCGCAUAAUCGCGUGGAUAUGGCACGCAAGUUUCUACCGGGCACCGUAAAUGUCCGACUGGAGCCGUUCGGGCGGCUAUAAACAGACCUCAGGCCCGAAGCGUGGCGGCACCUGCCGCCGGUGGUAAAAAAGAUCGGAAGAGCACACGUCU [U7G U10G U11C C12G],1.25
16,GGGUCGGUGGCACAUAAUCGCGUGGAUAUGGCACGCAAGUUUCUACCGGGCACCGUAAAUGUCCGACUGGAGCCGUUCGGGCGGCUAUAAACAGACCUCAGGCCCGAAGCGUGGCGGCACCUGCCGCCGGUGGUAAAAAAGAUCGGAAGAGCACACGUCU [U7G U10G U11C C12A],1.25
17,GGGUCGGUGGAUGAUAAUCGCGUGGAUAUGGCACGCAAGUUUCUACCGGGCACCGUAAAUGUCCGACUGGAGCCGUUCGGGCGGCUAUAAACAGACCUCAGGCCCGAAGCGUGGCGGCACCUGCCGCCGGUGGUAAAAAAGAUCGGAAGAGCACACGUCU [U7G U10G U11A C12U C13G],1.16
18,GGGUCGGUGGAUUAUAAUCGCGUGGAUAUGGCACGCAAGUUUCUACCGGGCACCGUAAAUGUCCGACUGGAGCCGUUCGGGCGGCUAUAAACAGACCUCAGGCCCGAAGCGUGGCGGCACCUGCCGCCGGUGGUAAAAAAGAUCGGAAGAGCACACGUCU [U7G U10G U11A C12U C13U],1.08

row,Variant,aptazyme ON/OFF ratio
1,GGGUCGGUGGAUAAUAAUCGCGUGGAUAUGGCACGCAAGUUUCUACCGGGCACCGUAAAUGUCCGACUGGAGCCGUUCGGGCGGCUAUAAACAGACCUCAGGCCCGAAGCGUGGCGGCACCUGCCGCCGGUGGUAAAAAAGAUCGGAAGAGCACACGUCU [U7G U10G U11A C12U C13A],1.1
2,GGGUCGGUGGCGGAUAAUCGCGUGGAUAUGGCACGCAAGUUUCUACCGGGCACCGUAAAUGUCCGACUGGAGCCGUUCGGGCGGCUAUAAACAGACCUCAGGCCCGAAGCGUGGCGGCACCUGCCGCCGGUGGUAAAAAAGAUCGGAAGAGCACACGUCU [U7G U10G U11C C12G C13G],1.07
3,GGGUCGGUGGCGUAUAAUCGCGUGGAUAUGGCACGCAAGUUUCUACCGGGCACCGUAAAUGUCCGACUGGAGCCGUUCGGGCGGCUAUAAACAGACCUCAGGCCCGAAGCGUGGCGGCACCUGCCGCCGGUGGUAAAAAAGAUCGGAAGAGCACACGUCU [U7G U10G U11C C12G C13U],1.35
4,GGGUCGGUGGCGAAUAAUCGCGUGGAUAUGGCACGCAAGUUUCUACCGGGCACCGUAAAUGUCCGACUGGAGCCGUUCGGGCGGCUAUAAACAGACCUCAGGCCCGAAGCGUGGCGGCACCUGCCGCCGGUGGUAAAAAAGAUCGGAAGAGCACACGUCU [U7G U10G U11C C12G C13A],1.14
5,GGGUCGGUGGCCCAUAAUCGCGUGGAUAUGGCACGCAAGUUUCUACCGGGCACCGUAAAUGUCCGACUGGAGCCGUUCGGGCGGCUAUAAACAGACCUCAGGCCCGAAGCGUGGCGGCACCUGCCGCCGGUGGUAAAAAAGAUCGGAAGAGCACACGUCU [U7G U10G U11C],1.07
6,GGGUCGGUGGACCAUAAUCGCGUGGAUAUGGCACGCAAGUUUCUACCGGGCACCGUAAAUGUCCGACUGGAGCCGUUCGGGCGGCUAUAAACAGACCUCAGGCCCGAAGCGUGGCGGCACCUGCCGCCGGUGGUAAAAAAGAUCGGAAGAGCACACGUCU [U7G U10G U11A],1.21
7,GGGUCGGUGGUUAAUAAUCGCGUGGAUAUGGCACGCAAGUUUCUACCGGGCACCGUAAAUGUCCGACUGGAGCCGUUCGGGCGGCUAUAAACAGACCUCAGGCCCGAAGCGUGGCGGCACCUGCCGCCGGUGGUAAAAAAGAUCGGAAGAGCACACGUCU [U7G U10G C12U C13A],1.18
8,GGGUCGGUGGUUUAUAAUCGCGUGGAUAUGGCACGCAAGUUUCUACCGGGCACCGUAAAUGUCCGACUGGAGCCGUUCGGGCGGCUAUAAACAGACCUCAGGCCCGAAGCGUGGCGGCACCUGCCGCCGGUGGUAAAAAAGAUCGGAAGAGCACACGUCU [U7G U10G C12U C13U],1.43
9,GGGUCGGUGGUUGAUAAUCGCGUGGAUAUGGCACGCAAGUUUCUACCGGGCACCGUAAAUGUCCGACUGGAGCCGUUCGGGCGGCUAUAAACAGACCUCAGGCCCGAAGCGUGGCGGCACCUGCCGCCGGUGGUAAAAAAGAUCGGAAGAGCACACGUCU [U7G U10G C12U C13G],1.24
10,GGGUCGGUGGUCGAUAAUCGCGUGGAUAUGGCACGCAAGUUUCUACCGGGCACCGUAAAUGUCCGACUGGAGCCGUUCGGGCGGCUAUAAACAGACCUCAGGCCCGAAGCGUGGCGGCACCUGCCGCCGGUGGUAAAAAAGAUCGGAAGAGCACACGUCU [U7G U10G C13G],1.13
11,GGGUCGGUGGUCAAUAAUCGCGUGGAUAUGGCACGCAAGUUUCUACCGGGCACCGUAAAUGUCCGACUGGAGCCGUUCGGGCGGCUAUAAACAGACCUCAGGCCCGAAGCGUGGCGGCACCUGCCGCCGGUGGUAAAAAAGAUCGGAAGAGCACACGUCU [U7G U10G C13A],1.29
12,GGGUCGGUGGUCUAUAAUCGCGUGGAUAUGGCACGCAAGUUUCUACCGGGCACCGUAAAUGUCCGACUGGAGCCGUUCGGGCGGCUAUAAACAGACCUCAGGCCCGAAGCGUGGCGGCACCUGCCGCCGGUGGUAAAAAAGAUCGGAAGAGCACACGUCU [U7G U10G C13U],1.17
13,GGGUCGGUGGAAGAUAAUCGCGUGGAUAUGGCACGCAAGUUUCUACCGGGCACCGUAAAUGUCCGACUGGAGCCGUUCGGGCGGCUAUAAACAGACCUCAGGCCCGAAGCGUGGCGGCACCUGCCGCCGGUGGUAAAAAAGAUCGGAAGAGCACACGUCU [U7G U10G U11A C12A C13G],1.09
14,GGGUCGGUGGAAUAUAAUCGCGUGGAUAUGGCACGCAAGUUUCUACCGGGCACCGUAAAUGUCCGACUGGAGCCGUUCGGGCGGCUAUAAACAGACCUCAGGCCCGAAGCGUGGCGGCACCUGCCGCCGGUGGUAAAAAAGAUCGGAAGAGCACACGUCU [U7G U10G U11A C12A C13U],1.08
15,GGGUCGGUGGAAAAUAAUCGCGUGGAUAUGGCACGCAAGUUUCUACCGGGCACCGUAAAUGUCCGACUGGAGCCGUUCGGGCGGCUAUAAACAGACCUCAGGCCCGAAGCGUGGCGGCACCUGCCGCCGGUGGUAAAAAAGAUCGGAAGAGCACACGUCU [U7G U10G U11A C12A C13A],1.14
16,GGGUCGGUGGAACAUAAUCGCGUGGAUAUGGCACGCAAGUUUCUACCGGGCACCGUAAAUGUCCGACUGGAGCCGUUCGGGCGGCUAUAAACAGACCUCAGGCCCGAAGCGUGGCGGCACCUGCCGCCGGUGGUAAAAAAGAUCGGAAGAGCACACGUCU [U7G U10G U11A C12A],1.14
17,GGGUCGGUGGAGCAUAAUCGCGUGGAUAUGGCACGCAAGUUUCUACCGGGCACCGUAAAUGUCCGACUGGAGCCGUUCGGGCGGCUAUAAACAGACCUCAGGCCCGAAGCGUGGCGGCACCUGCCGCCGGUGGUAAAAAAGAUCGGAAGAGCACACGUCU [U7G U10G U11A C12G],1.08
18,GGGUCGGUGGAUCAUAAUCGCGUGGAUAUGGCACGCAAGUUUCUACCGGGCACCGUAAAUGUCCGACUGGAGCCGUUCGGGCGGCUAUAAACAGACCUCAGGCCCGAAGCGUGGCGGCACCUGCCGCCGGUGGUAAAAAAGAUCGGAAGAGCACACGUCU [U7G U10G U11A C12U],1.1
